Experimental data as given in patent US20200199241A1 (Chugai, published 2020).
Numbering of substitutions follows the chain as printed. Names may count otherwise.

B1: GpH7-B3 variant D270G/GpL16-k0 (antibody, human IgG1)
heavy: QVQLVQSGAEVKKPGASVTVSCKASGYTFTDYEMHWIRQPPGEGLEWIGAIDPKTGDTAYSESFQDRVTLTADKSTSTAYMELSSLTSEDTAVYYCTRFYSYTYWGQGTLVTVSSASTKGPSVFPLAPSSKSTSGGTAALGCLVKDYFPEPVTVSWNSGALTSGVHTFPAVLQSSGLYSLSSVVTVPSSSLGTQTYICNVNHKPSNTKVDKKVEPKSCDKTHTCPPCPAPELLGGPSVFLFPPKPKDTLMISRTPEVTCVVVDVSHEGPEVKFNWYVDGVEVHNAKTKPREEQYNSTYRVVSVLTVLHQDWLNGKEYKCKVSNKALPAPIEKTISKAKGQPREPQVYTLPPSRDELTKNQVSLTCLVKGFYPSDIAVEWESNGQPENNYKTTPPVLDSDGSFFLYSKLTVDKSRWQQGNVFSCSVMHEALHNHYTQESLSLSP
light: DIVMTQSPLSLPVTPGEPASISCQASESLVHSNRNTYLHWYLQKPGQSPQLLIYKVSNRFSGVPDRFSGSGSGTDFTLKISRVEAEDVGVYYCSQNTHVPPTFGQGTKVEIE
notes: copies: 2 + 2
B2: GpH7-B3 variant D270W/GpL16-k0 (antibody, human IgG1)
heavy: not shown
light: B1 light
notes: copies: 2 + 2
B3: GpH7-B3 variant D270P/GpL16-k0 (antibody, human IgG1)
heavy: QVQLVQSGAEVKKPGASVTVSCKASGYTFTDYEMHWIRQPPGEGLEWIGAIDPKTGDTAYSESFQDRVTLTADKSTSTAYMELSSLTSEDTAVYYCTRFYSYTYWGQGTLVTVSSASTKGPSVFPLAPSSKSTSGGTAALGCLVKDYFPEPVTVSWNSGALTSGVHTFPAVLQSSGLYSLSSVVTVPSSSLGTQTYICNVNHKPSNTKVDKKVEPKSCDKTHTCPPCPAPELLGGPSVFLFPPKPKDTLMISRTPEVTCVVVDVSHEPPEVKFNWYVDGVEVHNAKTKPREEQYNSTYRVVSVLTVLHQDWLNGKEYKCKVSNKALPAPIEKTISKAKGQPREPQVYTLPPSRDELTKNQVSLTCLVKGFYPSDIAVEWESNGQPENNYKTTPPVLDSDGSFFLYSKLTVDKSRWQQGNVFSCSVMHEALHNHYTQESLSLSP
light: B1 light
notes: copies: 2 + 2
B4: GpH7-B3 variant E269L/GpL16-k0 (antibody, human IgG1)
heavy: not shown
light: B1 light
notes: copies: 2 + 2
B5: GpH7-B3 variant E269T/GpL16-k0 (antibody, human IgG1)
heavy: not shown
light: B1 light
notes: copies: 2 + 2
B6: GpH7-B3 variant E269M/GpL16-k0 (antibody, human IgG1)
heavy: not shown
light: B1 light
notes: copies: 2 + 2
B7: GpH7-B3 variant G236N/GpL16-k0 (antibody, human IgG1)
heavy: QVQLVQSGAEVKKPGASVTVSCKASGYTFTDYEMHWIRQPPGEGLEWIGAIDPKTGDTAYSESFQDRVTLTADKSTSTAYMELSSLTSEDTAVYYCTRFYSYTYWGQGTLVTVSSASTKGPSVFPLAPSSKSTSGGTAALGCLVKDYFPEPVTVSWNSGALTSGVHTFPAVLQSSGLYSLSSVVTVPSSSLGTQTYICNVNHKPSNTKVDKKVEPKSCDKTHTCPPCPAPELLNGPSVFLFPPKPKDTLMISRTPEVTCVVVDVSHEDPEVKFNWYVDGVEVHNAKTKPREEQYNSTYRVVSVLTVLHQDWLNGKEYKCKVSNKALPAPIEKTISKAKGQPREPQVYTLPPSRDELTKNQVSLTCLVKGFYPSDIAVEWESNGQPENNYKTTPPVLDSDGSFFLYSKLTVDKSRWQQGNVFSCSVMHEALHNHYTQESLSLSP
light: B1 light
notes: copies: 2 + 2
B8: GpH7-B3 variant G236F/GpL16-k0 (antibody, human IgG1)
heavy: not shown
light: B1 light
notes: copies: 2 + 2
B9: GpH7-B3 variant E269A/GpL16-k0 (antibody, human IgG1)
heavy: not shown
light: B1 light
notes: copies: 2 + 2
B10: GpH7-B3 variant G236M/GpL16-k0 (antibody, human IgG1)
heavy: not shown
light: B1 light
notes: copies: 2 + 2
B11: GpH7-B3 variant E2698/GpL16-k0 (antibody, human IgG1)
heavy: not shown
light: B1 light
notes: read as E269S (misprint of S as 8); copies: 2 + 2
B12: GpH7-B3 variant G236L/GpL16-k0 (antibody, human IgG1)
heavy: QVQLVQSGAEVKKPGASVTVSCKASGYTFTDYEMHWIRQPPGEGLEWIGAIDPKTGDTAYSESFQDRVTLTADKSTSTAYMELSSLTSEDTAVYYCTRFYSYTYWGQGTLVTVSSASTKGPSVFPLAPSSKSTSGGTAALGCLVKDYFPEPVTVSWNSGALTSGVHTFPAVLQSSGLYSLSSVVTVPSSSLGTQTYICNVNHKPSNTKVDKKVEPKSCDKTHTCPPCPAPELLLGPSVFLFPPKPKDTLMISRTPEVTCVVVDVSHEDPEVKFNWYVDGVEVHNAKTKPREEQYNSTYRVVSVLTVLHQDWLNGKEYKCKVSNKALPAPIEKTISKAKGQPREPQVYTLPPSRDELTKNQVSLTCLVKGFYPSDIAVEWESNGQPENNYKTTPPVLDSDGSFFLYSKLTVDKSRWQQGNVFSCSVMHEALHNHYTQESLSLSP
light: B1 light
notes: copies: 2 + 2
B13: GpH7-B3 variant E269F/GpL16-k0 (antibody, human IgG1)
heavy: not shown
light: B1 light
notes: copies: 2 + 2
B14: GpH7-B3 variant E269N/GpL16-k0 (antibody, human IgG1)
heavy: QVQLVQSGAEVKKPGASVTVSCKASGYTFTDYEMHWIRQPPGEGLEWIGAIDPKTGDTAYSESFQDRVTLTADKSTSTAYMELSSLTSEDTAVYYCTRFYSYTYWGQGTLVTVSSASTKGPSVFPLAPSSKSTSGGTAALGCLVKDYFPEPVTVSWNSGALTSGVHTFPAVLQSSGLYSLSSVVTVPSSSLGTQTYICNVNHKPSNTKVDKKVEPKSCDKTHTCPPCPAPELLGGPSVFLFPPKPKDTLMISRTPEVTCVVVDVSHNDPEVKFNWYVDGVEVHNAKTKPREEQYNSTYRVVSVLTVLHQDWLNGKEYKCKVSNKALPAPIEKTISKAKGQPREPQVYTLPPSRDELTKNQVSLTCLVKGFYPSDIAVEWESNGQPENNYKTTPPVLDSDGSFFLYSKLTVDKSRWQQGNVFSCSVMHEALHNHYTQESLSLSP
light: B1 light
notes: copies: 2 + 2
B15: GpH7-B3 variant E269G/GpL16-k0 (antibody, human IgG1)
heavy: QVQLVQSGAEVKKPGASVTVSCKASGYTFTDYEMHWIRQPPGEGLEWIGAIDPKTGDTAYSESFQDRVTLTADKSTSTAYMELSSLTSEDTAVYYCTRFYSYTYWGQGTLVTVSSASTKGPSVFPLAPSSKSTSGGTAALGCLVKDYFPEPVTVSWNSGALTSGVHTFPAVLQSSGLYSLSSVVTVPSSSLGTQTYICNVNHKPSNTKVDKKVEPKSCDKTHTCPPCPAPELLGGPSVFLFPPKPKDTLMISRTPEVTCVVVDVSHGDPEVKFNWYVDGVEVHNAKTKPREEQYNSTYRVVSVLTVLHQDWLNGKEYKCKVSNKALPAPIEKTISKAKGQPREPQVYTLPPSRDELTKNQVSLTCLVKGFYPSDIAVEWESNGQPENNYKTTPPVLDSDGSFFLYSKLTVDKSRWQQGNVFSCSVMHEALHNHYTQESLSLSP
light: B1 light
notes: copies: 2 + 2
B16: GpH7-B3 variant G236H/GpL16-k0 (antibody, human IgG1)
heavy: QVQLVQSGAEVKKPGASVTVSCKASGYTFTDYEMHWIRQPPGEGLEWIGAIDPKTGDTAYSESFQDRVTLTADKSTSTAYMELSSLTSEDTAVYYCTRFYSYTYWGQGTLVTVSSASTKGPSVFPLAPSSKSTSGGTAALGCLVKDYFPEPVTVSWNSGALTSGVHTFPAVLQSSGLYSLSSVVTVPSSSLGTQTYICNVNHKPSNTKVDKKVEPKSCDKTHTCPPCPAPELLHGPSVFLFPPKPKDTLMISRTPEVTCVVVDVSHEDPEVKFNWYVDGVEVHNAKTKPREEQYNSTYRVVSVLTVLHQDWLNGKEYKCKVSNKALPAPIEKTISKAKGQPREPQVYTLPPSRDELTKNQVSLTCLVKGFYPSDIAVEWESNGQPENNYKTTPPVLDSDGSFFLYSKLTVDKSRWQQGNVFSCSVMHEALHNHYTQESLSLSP
light: B1 light
notes: copies: 2 + 2
B17: GpH7-B3 variant D270R/GpL16-k0 (antibody, human IgG1)
heavy: not shown
light: B1 light
notes: copies: 2 + 2
B18: GpH7-B3 variant E269R/GpL16-k0 (antibody, human IgG1)
heavy: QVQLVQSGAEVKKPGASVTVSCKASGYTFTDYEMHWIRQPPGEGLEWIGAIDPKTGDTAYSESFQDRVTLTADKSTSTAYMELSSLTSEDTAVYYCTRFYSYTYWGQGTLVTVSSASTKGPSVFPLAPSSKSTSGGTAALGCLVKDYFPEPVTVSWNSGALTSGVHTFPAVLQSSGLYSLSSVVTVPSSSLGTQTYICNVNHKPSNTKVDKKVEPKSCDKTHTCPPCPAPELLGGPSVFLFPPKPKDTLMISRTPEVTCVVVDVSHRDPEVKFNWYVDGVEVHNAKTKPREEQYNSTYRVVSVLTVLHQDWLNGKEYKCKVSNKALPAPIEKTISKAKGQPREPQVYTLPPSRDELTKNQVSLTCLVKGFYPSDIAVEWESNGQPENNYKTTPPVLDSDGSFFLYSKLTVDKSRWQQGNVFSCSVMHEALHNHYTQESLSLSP
light: B1 light
notes: copies: 2 + 2
B19: GpH7-B3 variant E269Y/GpL16-k0 (antibody, human IgG1)
heavy: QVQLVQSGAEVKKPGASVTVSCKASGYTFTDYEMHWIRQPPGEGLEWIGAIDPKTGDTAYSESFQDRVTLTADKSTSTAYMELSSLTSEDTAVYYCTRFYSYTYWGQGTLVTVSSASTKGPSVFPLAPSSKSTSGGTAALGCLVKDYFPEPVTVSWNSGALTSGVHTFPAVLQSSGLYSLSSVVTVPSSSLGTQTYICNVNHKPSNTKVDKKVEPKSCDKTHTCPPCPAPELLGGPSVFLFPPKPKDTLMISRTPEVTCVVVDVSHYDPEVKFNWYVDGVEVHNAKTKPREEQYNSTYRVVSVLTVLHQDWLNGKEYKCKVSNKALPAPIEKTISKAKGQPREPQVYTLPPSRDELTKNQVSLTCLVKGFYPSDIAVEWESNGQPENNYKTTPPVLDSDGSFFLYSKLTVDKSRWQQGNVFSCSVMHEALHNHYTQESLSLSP
light: B1 light
notes: copies: 2 + 2
B20: GpH7-B3 variant D270K/GpL16-k0 (antibody, human IgG1)
heavy: not shown
light: B1 light
notes: copies: 2 + 2
B21: GpH7-B3 variant E269P/GpL16-k0 (antibody, human IgG1)
heavy: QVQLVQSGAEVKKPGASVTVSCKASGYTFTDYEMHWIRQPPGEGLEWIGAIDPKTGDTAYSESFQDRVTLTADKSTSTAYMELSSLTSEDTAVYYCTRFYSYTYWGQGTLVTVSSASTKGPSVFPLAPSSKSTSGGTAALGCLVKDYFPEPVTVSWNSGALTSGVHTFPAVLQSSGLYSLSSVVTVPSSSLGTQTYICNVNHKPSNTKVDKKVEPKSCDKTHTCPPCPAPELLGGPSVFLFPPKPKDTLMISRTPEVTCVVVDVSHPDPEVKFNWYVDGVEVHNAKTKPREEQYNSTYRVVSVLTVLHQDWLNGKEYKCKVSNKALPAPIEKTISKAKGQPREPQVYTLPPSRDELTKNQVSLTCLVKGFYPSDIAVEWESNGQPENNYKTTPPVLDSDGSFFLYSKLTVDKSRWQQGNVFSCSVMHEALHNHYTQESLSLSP
light: B1 light
notes: copies: 2 + 2
B22: GpH7-B3 variant E269Q/GpL16-k0 (antibody, human IgG1)
heavy: not shown
light: B1 light
notes: copies: 2 + 2
B23: GpH7-B3 variant E269V/GpL16-k0 (antibody, human IgG1)
heavy: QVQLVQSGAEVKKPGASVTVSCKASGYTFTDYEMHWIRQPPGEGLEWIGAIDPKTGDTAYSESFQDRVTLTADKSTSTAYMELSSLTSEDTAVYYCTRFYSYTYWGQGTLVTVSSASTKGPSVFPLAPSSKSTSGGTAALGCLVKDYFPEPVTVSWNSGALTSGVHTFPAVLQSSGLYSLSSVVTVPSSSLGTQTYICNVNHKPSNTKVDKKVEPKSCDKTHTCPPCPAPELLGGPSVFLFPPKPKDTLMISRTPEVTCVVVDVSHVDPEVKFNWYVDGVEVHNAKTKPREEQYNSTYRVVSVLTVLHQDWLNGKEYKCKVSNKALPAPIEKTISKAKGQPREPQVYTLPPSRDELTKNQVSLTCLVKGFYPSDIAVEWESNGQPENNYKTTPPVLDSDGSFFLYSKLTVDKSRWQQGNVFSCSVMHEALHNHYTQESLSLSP
light: B1 light
notes: copies: 2 + 2

Target: T1, human FcγRIIa(R) (human, UniProt P12318 36-217)
T1 construct: also called FcgRIIaR; FcγRIIa type R
T1 chain: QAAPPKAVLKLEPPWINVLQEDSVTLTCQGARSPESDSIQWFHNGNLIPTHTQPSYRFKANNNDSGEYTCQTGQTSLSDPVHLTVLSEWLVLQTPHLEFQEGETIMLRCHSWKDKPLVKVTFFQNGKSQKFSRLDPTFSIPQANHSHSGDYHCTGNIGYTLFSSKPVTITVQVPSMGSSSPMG
Experiment: SPR (Biacore);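 note: antibody variants captured on sensor chip, Fcγ receptor flowed over at 25 °C, bound receptor normalized to amount of captured antibody, expressed relative to reference antibody set as 100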

Row | Binder | relative binding activity
1 | B1 | 3 % of GpH7-B3/GpL16-k0
2 | B2 | -2 % of GpH7-B3/GpL16-k0
3 | B3 | -3 % of GpH7-B3/GpL16-k0
4 | B4 | 20 % of GpH7-B3/GpL16-k0
5 | B5 | 35 % of GpH7-B3/GpL16-k0
6 | B6 | 23 % of GpH7-B3/GpL16-k0
7 | B7 | 54 % of GpH7-B3/GpL16-k0
8 | B8 | 23 % of GpH7-B3/GpL16-k0
9 | B9 | 20 % of GpH7-B3/GpL16-k0
10 | B10 | 23 % of GpH7-B3/GpL16-k0
11 | B11 | 33 % of GpH7-B3/GpL16-k0
12 | B12 | 20 % of GpH7-B3/GpL16-k0
13 | B13 | 19 % of GpH7-B3/GpL16-k0
14 | B14 | 24 % of GpH7-B3/GpL16-k0
15 | B15 | 38 % of GpH7-B3/GpL16-k0
16 | B16 | 32 % of GpH7-B3/GpL16-k0
17 | B17 | -5 % of GpH7-B3/GpL16-k0
18 | B18 | 2 % of GpH7-B3/GpL16-k0
19 | B19 | 21 % of GpH7-B3/GpL16-k0
20 | B20 | -4 % of GpH7-B3/GpL16-k0
21 | B21 | 34 % of GpH7-B3/GpL16-k0
22 | B22 | 24 % of GpH7-B3/GpL16-k0
23 | B23 | 16 % of GpH7-B3/GpL16-k0

The binders below were run against T2, human FcγRIIIa(F) (human, UniProt P08637 17-208, limits assumed) (assay: SPR (Biacore);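 note: antibody variants captured on sensor chip, Fcγ receptor flowed over at 25 °C, bound receptor normalized to amount of captured antibody, expressed relative to reference antibody set as 100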).
T2 construct: also called FcgRIIIaF; allotype F158

Row | Binder | relative binding activity
24 | B1 | 6 % of GpH7-B3/GpL16-k0
25 | B2 | 7 % of GpH7-B3/GpL16-k0
26 | B3 | -1 % of GpH7-B3/GpL16-k0
27 | B4 | 10 % of GpH7-B3/GpL16-k0
28 | B5 | 26 % of GpH7-B3/GpL16-k0
29 | B6 | 20 % of GpH7-B3/GpL16-k0
30 | B7 | 8 % of GpH7-B3/GpL16-k0
31 | B8 | 24 % of GpH7-B3/GpL16-k0
32 | B9 | 28 % of GpH7-B3/GpL16-k0
33 | B10 | 9 % of GpH7-B3/GpL16-k0
34 | B11 | 29 % of GpH7-B3/GpL16-k0
35 | B12 | 1 % of GpH7-B3/GpL16-k0
36 | B13 | 10 % of GpH7-B3/GpL16-k0
37 | B14 | 21 % of GpH7-B3/GpL16-k0
38 | B15 | 27 % of GpH7-B3/GpL16-k0
39 | B16 | 7 % of GpH7-B3/GpL16-k0
40 | B17 | 2 % of GpH7-B3/GpL16-k0
41 | B18 | 7 % of GpH7-B3/GpL16-k0
42 | B19 | 14 % of GpH7-B3/GpL16-k0
43 | B20 | 5 % of GpH7-B3/GpL16-k0
44 | B21 | 14 % of GpH7-B3/GpL16-k0
45 | B22 | 38 % of GpH7-B3/GpL16-k0
46 | B23 | 12 % of GpH7-B3/GpL16-k0

Each binder was assayed against T3, human FcγRIa (human, UniProt P12314 16-292, limits assumed) (assay: SPR (Biacore);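 note: antibody variants captured on sensor chip, Fcγ receptor flowed over at 25 °C, bound receptor normalized to amount of captured antibody, expressed relative to reference antibody set as 100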).
T3 construct: also called FcgRIa; FcγRI (CD64)

Row | Binder | relative binding activity
47 | B1 | 82 % of GpH7-B3/GpL16-k0
48 | B2 | 74 % of GpH7-B3/GpL16-k0
49 | B3 | 64 % of GpH7-B3/GpL16-k0
50 | B4 | 98 % of GpH7-B3/GpL16-k0
51 | B5 | 93 % of GpH7-B3/GpL16-k0
52 | B6 | 98 % of GpH7-B3/GpL16-k0
53 | B7 | 42 % of GpH7-B3/GpL16-k0
54 | B8 | 81 % of GpH7-B3/GpL16-k0
55 | B9 | 93 % of GpH7-B3/GpL16-k0
56 | B10 | 70 % of GpH7-B3/GpL16-k0
57 | B11 | 93 % of GpH7-B3/GpL16-k0
58 | B12 | 18 % of GpH7-B3/GpL16-k0
59 | B13 | 99 % of GpH7-B3/GpL16-k0
60 | B14 | 90 % of GpH7-B3/GpL16-k0
61 | B15 | 94 % of GpH7-B3/GpL16-k0
62 | B16 | 34 % of GpH7-B3/GpL16-k0
63 | B17 | 45 % of GpH7-B3/GpL16-k0
64 | B18 | 72 % of GpH7-B3/GpL16-k0
65 | B19 | 97 % of GpH7-B3/GpL16-k0
66 | B20 | 45 % of GpH7-B3/GpL16-k0
67 | B21 | 93 % of GpH7-B3/GpL16-k0
68 | B22 | 96 % of GpH7-B3/GpL16-k0
69 | B23 | 92 % of GpH7-B3/GpL16-k0

Each binder was assayed against T4, human FcγRIIa(H) (human, UniProt P12318 36-217) (assay: SPR (Biacore);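 note: antibody variants captured on sensor chip, Fcγ receptor flowed over at 25 °C, bound receptor normalized to amount of captured antibody, expressed relative to reference antibody set as 100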).
T4 construct: also called FcgRIIaH; FcγRIIa type H
T4 sequence: T1 chain with R133H

Row | Binder | relative binding activity
70 | B1 | 29 % of GpH7-B3/GpL16-k0
71 | B2 | 38 % of GpH7-B3/GpL16-k0
72 | B3 | 0 % of GpH7-B3/GpL16-k0
73 | B4 | 40 % of GpH7-B3/GpL16-k0
74 | B5 | 39 % of GpH7-B3/GpL16-k0
75 | B6 | 50 % of GpH7-B3/GpL16-k0
76 | B7 | 81 % of GpH7-B3/GpL16-k0
77 | B8 | 68 % of GpH7-B3/GpL16-k0
78 | B9 | 51 % of GpH7-B3/GpL16-k0
79 | B10 | 42 % of GpH7-B3/GpL16-k0
80 | B11 | 48 % of GpH7-B3/GpL16-k0
81 | B12 | 23 % of GpH7-B3/GpL16-k0
82 | B13 | 41 % of GpH7-B3/GpL16-k0
83 | B14 | 31 % of GpH7-B3/GpL16-k0
84 | B15 | 46 % of GpH7-B3/GpL16-k0
85 | B16 | 91 % of GpH7-B3/GpL16-k0
86 | B17 | 11 % of GpH7-B3/GpL16-k0
87 | B18 | 13 % of GpH7-B3/GpL16-k0
88 | B19 | 43 % of GpH7-B3/GpL16-k0
89 | B20 | 16 % of GpH7-B3/GpL16-k0
90 | B21 | 33 % of GpH7-B3/GpL16-k0
91 | B22 | 64 % of GpH7-B3/GpL16-k0
92 | B23 | 35 % of GpH7-B3/GpL16-k0

What follows are binders tested against T5, human FcγRIIb (human, UniProt P31994 43-217, limits assumed) (assay: SPR (Biacore)).
T5 construct: also called FcgRIIb
T5 sequence: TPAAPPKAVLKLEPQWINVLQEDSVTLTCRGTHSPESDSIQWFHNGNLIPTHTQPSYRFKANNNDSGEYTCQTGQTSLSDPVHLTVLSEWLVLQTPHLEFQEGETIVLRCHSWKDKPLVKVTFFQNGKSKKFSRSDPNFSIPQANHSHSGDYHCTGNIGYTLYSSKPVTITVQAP

Row | Binder | relative binding activity
93 | B1 | 3 % of GpH7-B3/GpL16-k0
94 | B2 | 2 % of GpH7-B3/GpL16-k0
95 | B3 | -1 % of GpH7-B3/GpL16-k0
96 | B4 | 12 % of GpH7-B3/GpL16-k0
97 | B5 | 19 % of GpH7-B3/GpL16-k0
98 | B6 | 15 % of GpH7-B3/GpL16-k0
99 | B7 | 75 % of GpH7-B3/GpL16-k0
100 | B8 | 15 % of GpH7-B3/GpL16-k0
101 | B9 | 13 % of GpH7-B3/GpL16-k0
102 | B10 | 14 % of GpH7-B3/GpL16-k0
103 | B11 | 19 % of GpH7-B3/GpL16-k0
104 | B12 | 4 % of GpH7-B3/GpL16-k0
105 | B13 | 13 % of GpH7-B3/GpL16-k0
106 | B14 | 15 % of GpH7-B3/GpL16-k0
107 | B15 | 25 % of GpH7-B3/GpL16-k0
108 | B16 | 6 % of GpH7-B3/GpL16-k0
109 | B17 | -5 % of GpH7-B3/GpL16-k0
110 | B18 | 0 % of GpH7-B3/GpL16-k0
111 | B19 | 13 % of GpH7-B3/GpL16-k0
112 | B20 | -5 % of GpH7-B3/GpL16-k0
113 | B21 | 26 % of GpH7-B3/GpL16-k0
114 | B22 | 13 % of GpH7-B3/GpL16-k0
115 | B23 | 10 % of GpH7-B3/GpL16-k0
